In PMC4244909:

Molecular target: microtubules (polymers of α/β-tubulin) of the co-sedimentation and negative-stain EM experiments
Experiment: co-sedimentation

Chain of microtubules (polymers of α/β-tubulin) of the co-sedimentation and negative-stain EM experiments (P68363 whole entry, chain 1 of 2): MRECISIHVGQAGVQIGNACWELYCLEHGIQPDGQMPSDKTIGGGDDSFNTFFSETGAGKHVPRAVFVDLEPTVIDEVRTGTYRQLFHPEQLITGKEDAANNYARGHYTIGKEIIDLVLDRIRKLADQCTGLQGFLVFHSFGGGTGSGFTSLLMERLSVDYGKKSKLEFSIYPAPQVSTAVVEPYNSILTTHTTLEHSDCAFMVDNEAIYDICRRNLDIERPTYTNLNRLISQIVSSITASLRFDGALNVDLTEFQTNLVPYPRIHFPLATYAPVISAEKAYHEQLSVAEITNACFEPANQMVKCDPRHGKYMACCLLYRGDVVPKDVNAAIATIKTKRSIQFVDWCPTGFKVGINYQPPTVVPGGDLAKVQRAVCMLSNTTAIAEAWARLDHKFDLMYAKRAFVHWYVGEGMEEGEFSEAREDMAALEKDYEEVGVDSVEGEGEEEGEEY
Chain of microtubules (polymers of α/β-tubulin) of the co-sedimentation and negative-stain EM experiments (A8K068 whole entry, chain 2 of 2, further chain): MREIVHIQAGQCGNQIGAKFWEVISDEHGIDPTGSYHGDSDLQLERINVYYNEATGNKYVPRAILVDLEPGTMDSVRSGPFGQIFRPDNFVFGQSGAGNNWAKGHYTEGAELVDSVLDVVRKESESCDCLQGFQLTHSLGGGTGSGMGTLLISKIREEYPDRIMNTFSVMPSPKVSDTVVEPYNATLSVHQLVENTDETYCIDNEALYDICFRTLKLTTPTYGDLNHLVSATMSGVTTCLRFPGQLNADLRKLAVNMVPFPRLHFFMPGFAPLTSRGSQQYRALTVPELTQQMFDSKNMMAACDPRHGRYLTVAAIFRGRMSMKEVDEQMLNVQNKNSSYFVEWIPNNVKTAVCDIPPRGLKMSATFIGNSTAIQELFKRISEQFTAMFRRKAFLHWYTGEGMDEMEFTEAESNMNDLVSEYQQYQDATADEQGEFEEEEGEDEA

B1: Hice1-MTBR (Hice1 microtubule-binding region, a.a. 1–141), Q9BT25 1-141 (domain or fragment)
chain: MADSSGRGAGKPATGPTNSSSAKKKDKRVQGGRVIESRYLQYEKKTTQKAPAGDGSQTRGKMSEGGRKSSLLQKSKADSSGVGKGDLQSTLLEGHGTAPPDLDLSAINDKSIVKKTPQLAKTISKKPESTSFSAPRKKSPD
- Kd: 9.33 µM
